PMC1929070

Biological target: GST-XNRL (Xenopus laevis)
Test: pull-down; Glutathione-Sepharose-bound GST-XNRL (or GST alone) incubated with affinity purified MYC fusion proteins in binding buffer (0.1% Triton X-100, 50 mM HEPES pH 7.5, 150 mM NaCl, 1% glycerol, 1.5 mM MgCl2, 5 mM EGTA) overnight at 4°C, washed three times; anti-MYC Western blot, bands quantified by Image J (retained/input, normalised to MYC-XOTX2); two independent experiments

- fold binding relative to MYC-XOTX2 (retained/input ratio): 2.4 fold
Substance: MYC-XOTX5b (natural protein)
